First the molecules themselves.
B1: ORF2695 (protein, listed as Staphylococcus epidermidis)
chain: MRYLKKVTIYISLLILTIFIGGCGFINKEDSKETEIKQNFNKMLNVYPTKNLEDFYDKEGFRDEEFDKGDKGTWIIRSEMTKQPKGKIMTSRGMVLYINRNTRTAKGYFLIDEIKDDNSGRPIENEKKYPVKMNHNKIFPTKPISDDKLKKEIENFKFFVQYGDFKNLKDYKDGEISYNPNVPSYSAQYQLNNNDNNVKQLRKRYDIPTNQAPKLLLKGDGDLKGSSVGSKNLEFTFVENKEENIFFTDAVQFTPSEDDES
B2: ORF2694 (protein, listed as Staphylococcus epidermidis)
chain: MKHSSKIIVFVSFLILTIFIGGCGFINKEDSKEAEIKQNFNKTLSMYPTKNLEDFYDKEGYRDEEFDKDDKGTWIINSKMIVEPKGEEMEARGMVLRINRNTRTAKGNFIIKRITENNKGIPDVKDKKYPVKMEHNKIIPTKQIKDKKLKKEIENFKFFVQYGNFKNLKDYKDGEISYNPNVPSYSAQYQLNNYDNNVKQLRKRYDIPTNQAPKLLLKGTGDLKGSSVGYKHLEFTFVENKKENIYFTDSINFNPSRGN

The test system of the first assay is antibodies in human patient sera. Nature of the assay: Western blot reactivity of selected clones with human sera. The class given is binding. To be noted: clone and its aa region are named in the cell; prefix A/B/C = screen the clone came from. On the procedure: For Western blot analysis approximately 10 to 20 μg of total cellular protein was separated by 10% SDS-PAGE and blotted onto HybondC membrane (Amersham Pharmacia Biotech, England). The LamB or FhuA fusion proteins were detected using human serum as the primary antibody at a dilution of 1:5000 and anti human IgG antibodies coupled to HRP at a dilution of 1:5000 as secondary antibodies. Detection was performed using the ECL detection kit (Amersham Pharmacia Biotech, England). Alternatively, rabbit anti FhuA or mouse anti LamB antibodies were used as primary antibodies in combination with the respective secondary antibodies coupled to HRP for the detection of the fusion proteins.
Subsequent sequencing of a larger number of randomly picked clones (500 to 800 per screen) led to the identification of the gene and the corresponding peptide or protein sequence that was specifically recognized by the human patient serum used for screening. The frequency with which a specific clone is selected reflects at least in part the abundance and/or affinity of the specific antibodies in the serum used for selection and recognizing the epitope presented by this clone. […] All clones that are presented in Table 2 have been verified by Western blot analysis using whole cellular extracts from single clones to show the indicated reactivity with the pool of human serum used in the screen.
10 to 30 different human patient sera were subsequently used to evaluate the presence of antibodies against the selected immunogenic peptide sequences that have been discovered in the screen according to the present invention. To eliminate possible cross-reactivity with proteins expressed by E. coli, all sera were pre-adsorbed with a total cellular lysate of E. coli DHa cells expressing FhuA protein.
This analysis is summarized in Table 2 and as an example shown in FIG. 4 and is indicative of the validity of the present screen.
A general note: A western blot detects proteins with antibodies after separation by electrophoresis.
Consider B1, for which the “Serum reactivity with relevant region (positive/total)” value is given as “A: SEFAH77(22-66): 6/12”. Still for that read-out and setting: in the case of B2 it was “B: SELAB26(27-60): 5/12”.

A further assay has as its target T1, DRA1*0101/DRB1*0401 (Homo sapiens, UniProt P01903+P01911, A100K/A169T/F76Y/I96L/K127E/L162R/M171V/N62H/P40V/Q125Y/R42H/S133A/S149N/S66Y/V115G/V209L/W38E).
T1 construct: using recombinant soluble versions of HLA class II molecules; made in house; host or cells: SC-2 cells
Briefly: Competition assay with soluble HLA class II molecules. Further details: key: +, + +: binding; +, + +: binding; −: no competition up to 200 μM test peptide. The note with it: binding to soluble DRA1*0101/DRB1*0401 molecules. The procedure:
Binding of peptides to HLA molecules on the surface of antigen-presenting cells is a prerequisite for activation of T cells. Binding was assessed in vitro by two independent biochemical assays using recombinant soluble versions of HLA class II molecules. One assay measures the concentration dependent competitive replacement of a labeled reference peptide by the test peptides. The second assay is based on the formation of SDS-stable complexes upon binding of high- and intermediate affinity ligands.
Soluble HLA molecules (DRA1*0101/DRB1*0101 and DRA1*0101/DRB1*0401) were expressed in SC-2 cells and purified as described in Aichinger et al., 1997. For the competition assay (Hammer et al. 1995) HLA molecules were applied between 50 and 200 ng/well. For DRB1*0101 biotinilated indicator peptide HA (PKYVKQNTLKLAT—SEQ ID NO:602, Valli et al. 1993) was used at 0.008 μM. […] Molecules, indicator and test peptides were incubated overnight at 37° C., pH 7. HLA:peptide complexes obtained after incubation with serial dilutions of test and reference peptides (the known high-affinity binders HA and UD4 were used as positive control) were captured in ELISA plates coated with antibody L243, which is known to recognize a conformational epitope formed only by correctly associated heterodimers. Incorporated biotin was measured by standard colorimetric detection using a streptavidin-alkaline phosphatase conjugate (Dako) with NBT/BCIP tablets (Sigma) as substrate and automated OD reading on a Victor reader (Wallac).
In the case of AGGIFYNQTNQQLLVLCDGMGGHK [p23-47], the binding entry is “− (−: no competition up to 200 μM test peptide)”. Same read-out and setting: next, KEFKSFYSIRKSSLGVASVAISTL [p6-30]: “+ +”; “MNYGYGPGVVTSRTISASQA (EMNYGYGPGVVTSRTISASQA; listed as Staphylococcus aureus) [p240-260]”: “+”; “FPYIPDKAVYNAIVKVVVANIGYEGQ (FPYIPDKAVYNAIVKVVVANIGYEGQY; listed as Staphylococcus aureus) [p620-646]”: “+”. For the molecule IKINHFCVVPQINSFKVIPPYGHNS [p226-251], the binding entry is on record as “− (−: no competition up to 200 μM test peptide)”. Still for that read-out and setting: in the case of YDYKYFYSYKVVKGVKKYFSFSQS [p275-299] it was “+”; in that of MTLPLMALLALSSIVAFVLPRKRKN [p623-647], “− (−: no competition up to 200 μM test peptide)”. Still for that read-out and setting: in the case of MHVPSFQNNTTATHQN [p254-270] it was “+”. Same read-out and setting: in the case of TIFRYVEGKSLYE [p416-428] it was “− (−: no competition up to 200 μM test peptide)”; in that of “GESLNIIASRYGVSVDQLMAANNLRG (listed as Staphylococcus aureus) [p96-121]”, “− (−: no competition up to 200 μM test peptide)”; in that of ALVFEKSVVIANVGDSRA [p107-124], “− (−: no competition up to 200 μM test peptide)”.

In the case of “VIVSTLFLISQHQAQA (VIVSTLFLITSQHQAQA; listed as Staphylococcus aureus) [p24-40]”, the binding entry was “− (−: no competition up to 200 μM test peptide)”. Same read-out and setting: in the case of “QSWWGLYALLGMLALFIPKFRKESK (listed as Staphylococcus aureus) [p871-896]” it was “− (−: no competition up to 200 μM test peptide)”; in that of YKVVKGVKKYFSFSQSNGYKIG [p284-305], “+”. The same measure, in the same setting: in the case of FMVEGQRVRTISTYAINNTRCTIF [p395-418] it was “− (−: no competition up to 200 μM test peptide)”.

Regarding KLLVLTMSTLFATQIMNSNHAKASV [p4-29], the binding entry is reported as “+”.

In the case of KDYAYIRFSVSNGTKAVKIVSSTHFNN [p218-244], the binding result is recorded as “+”. The same measure, in the same setting: in the case of “PSLNIKNVNYQYAVPSYSPT (listed as Staphylococcus aureus) [p306-326]” it was “+”; in that of IKLVSYDTVKDYAYIRFSVSNGTKA [p209-233], “+”. Still for that read-out and setting: next, “NNLRGYLIMPNQTLQIPNG (NNLRGYLIMPNQTLQIPNGG; listed as Staphylococcus aureus) [p117-136]”: “− (−: no competition up to 200 μM test peptide)”; “PKLRSFYSIRKSTLGVASVIVST (listed as Staphylococcus aureus) [p6-28]”: “+”.

The values above are taken from patent publication US7968297B2, “Method for identification, isolation and production of antigens to a specific pathogen” (Intercell AG, priority 2001, dated 2011).
